Here are results for one molecule from PMC3985441 (Bioscience Reports, 2014).

For the experiment, the target named is T1, p110αEE^E545K/p85α complex (E545K oncogenic mutant PI3Kα) (human, UniProt P42336 1-1068; P27986 1-724, E545K).
T1 construct: p110α catalytic subunit of Class 1A PI3K, human, full length, somatic cancer mutation E545K in the helical domain; p85α regulatory subunit of Class 1A PI3K, human, full length; 1:1 heterodimer; also called E545K mutant; p110α^E545K/p85α; not shown: EE tag (glu-tag, 6 amino acids), C-terminal, kept; copies: 1 + 1
T1 sequence (P42336 whole entry E545K, chain 1 of 2, the tested form may be a part): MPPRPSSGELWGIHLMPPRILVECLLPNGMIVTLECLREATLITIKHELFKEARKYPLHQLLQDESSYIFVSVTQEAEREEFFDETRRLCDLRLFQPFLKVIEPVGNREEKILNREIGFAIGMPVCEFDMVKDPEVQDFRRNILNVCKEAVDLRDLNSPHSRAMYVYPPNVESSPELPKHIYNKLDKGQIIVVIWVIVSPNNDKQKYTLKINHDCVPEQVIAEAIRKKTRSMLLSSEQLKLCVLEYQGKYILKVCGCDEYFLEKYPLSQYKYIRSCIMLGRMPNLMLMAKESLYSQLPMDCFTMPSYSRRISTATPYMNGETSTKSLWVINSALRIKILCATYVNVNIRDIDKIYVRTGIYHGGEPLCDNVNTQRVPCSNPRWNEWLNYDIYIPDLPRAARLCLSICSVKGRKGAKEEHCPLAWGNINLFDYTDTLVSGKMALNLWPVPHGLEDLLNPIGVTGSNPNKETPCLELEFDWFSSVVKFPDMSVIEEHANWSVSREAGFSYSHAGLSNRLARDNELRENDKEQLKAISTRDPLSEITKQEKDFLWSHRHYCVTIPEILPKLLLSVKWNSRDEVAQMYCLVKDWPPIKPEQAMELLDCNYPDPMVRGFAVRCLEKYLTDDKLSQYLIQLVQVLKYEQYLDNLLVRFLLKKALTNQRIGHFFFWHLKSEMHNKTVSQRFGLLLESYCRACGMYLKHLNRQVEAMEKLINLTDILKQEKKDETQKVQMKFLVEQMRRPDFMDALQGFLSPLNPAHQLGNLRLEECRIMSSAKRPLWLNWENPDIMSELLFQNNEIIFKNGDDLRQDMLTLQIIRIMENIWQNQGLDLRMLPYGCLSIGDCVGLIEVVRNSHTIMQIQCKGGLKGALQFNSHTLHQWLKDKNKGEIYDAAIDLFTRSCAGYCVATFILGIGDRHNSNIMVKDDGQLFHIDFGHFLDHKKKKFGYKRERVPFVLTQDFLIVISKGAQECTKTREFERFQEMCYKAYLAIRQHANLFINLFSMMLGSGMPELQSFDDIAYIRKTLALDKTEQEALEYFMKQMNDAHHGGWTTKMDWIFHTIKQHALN
T1 sequence (P27986 whole entry, chain 2 of 2, the tested form may be a part): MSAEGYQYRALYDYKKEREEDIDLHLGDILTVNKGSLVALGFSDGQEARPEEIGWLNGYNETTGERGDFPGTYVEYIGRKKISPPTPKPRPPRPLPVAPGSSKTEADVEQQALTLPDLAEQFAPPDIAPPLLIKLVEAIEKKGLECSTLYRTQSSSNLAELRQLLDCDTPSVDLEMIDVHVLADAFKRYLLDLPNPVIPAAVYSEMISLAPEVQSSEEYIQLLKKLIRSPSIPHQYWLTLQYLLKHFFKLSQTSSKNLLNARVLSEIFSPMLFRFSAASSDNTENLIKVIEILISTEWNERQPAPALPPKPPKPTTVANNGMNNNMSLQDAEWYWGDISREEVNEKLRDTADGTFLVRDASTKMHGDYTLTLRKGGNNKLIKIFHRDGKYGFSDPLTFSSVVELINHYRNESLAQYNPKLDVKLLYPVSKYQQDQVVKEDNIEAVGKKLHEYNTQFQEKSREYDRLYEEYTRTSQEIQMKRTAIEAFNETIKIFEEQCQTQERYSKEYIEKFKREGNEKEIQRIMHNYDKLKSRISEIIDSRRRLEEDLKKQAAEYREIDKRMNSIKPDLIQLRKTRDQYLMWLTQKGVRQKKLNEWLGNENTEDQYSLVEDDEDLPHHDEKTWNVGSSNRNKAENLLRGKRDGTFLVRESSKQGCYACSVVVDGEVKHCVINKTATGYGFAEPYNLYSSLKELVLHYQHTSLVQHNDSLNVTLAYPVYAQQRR
Put plainly: pull-down; GST fusion proteins (1 μg) on glutathione agarose, PI3Kα complexes (100–3200 ng) in solution; TBS with 10% (v/v) FBS, 1 h at 4°C; washes in TBS with 0.1% Tween 20; bound PI3Kα detected by immunoblot for p85α. The conditions noted are these: both partners purified.

B1: GST-V12 Cdc42 (constitutively active Cdc42Hs) (natural protein)
chain: not shown
notes: Cdc42Hs, human, constitutively active (V12) form; Plasmid courtesy of Professor Anne Ridley; also called GST-Cdc42; source: E. coli BL21 (DE3), purified (glutathione agarose)
Take B1: the binding result was “binds”.
